Measurements from paper PMC8205527, “Structural basis for the coiled-coil architecture of human CtIP” (Open Biology, 2021).

B1: CtIP-cNTD 31–145 (wild type) (domain or fragment, human, UniProt Q99708 31-145, looked up)
chain: HDREVQGLQVKVTKLKQERILDAQRLEEFFTKNQQLREQQKVLHETIKVLEDRLRAGLCDRCAVTEEHMRKKQQEFENIRQQNLKLITELMNERNTLQEENKKLSEQLQQKIEND
notes: also called wild-type CtIP-cNTD; C-terminal NTD; source: E. coli BL21(DE3) Rosetta 2, purified (Ni-NTA, TEV cleavage, Strep-Tactin, SEC); not shown: His6, N-terminal, cleaved; MBP, N-terminal, cleaved
B2: CtIP-NTD (18–145) (domain or fragment, human, UniProt Q99708 18-145, looked up)
chain: SDFKDLWTKLKECHDREVQGLQVKVTKLKQERILDAQRLEEFFTKNQQLREQQKVLHETIKVLEDRLRAGLCDRCAVTEEHMRKKQQEFENIRQQNLKLITELMNERNTLQEENKKLSEQLQQKIEND
notes: also called CtIP N-terminal domain; source: E. coli BL21(DE3) Rosetta 2, purified (Ni-NTA, TEV cleavage, Strep-Tactin, SEC); not shown: His6, N-terminal, cleaved; MBP, N-terminal, cleaved

Molecular target: the molecule itself
Assay: SEC-SAXS; Superdex 200 Increase 3.2/300 in 20 mM Tris HCl 8.0, 300 mM NaCl; protein at 3–10 mg/ml; Guinier analysis, P(r), MONSA and BilboMD modelling

Protein | stoichiometry N
B1 | 2
B2 | 4
